Measured values from patent US20230250170A1.
Like-named read-outs stand apart in the source and are kept apart here.

Tests used:
[1] = molecular target: human NPR1 on HEK293/hNPR1 cells (human) (UniProt P16066)
[2] = molecular target: human NPR1 on HEK293/hNPR1 cells (human) (UniProt P16066); remark: listed apart in the source
[3] = molecular target: human NPR1 on HEK293/hNPR1 cells (human) (UniProt P16066); remark: listed apart in the source
[4] = molecular target: human NPR1 on HEK293/hNPR1 cells (human) (UniProt P16066); remark: listed apart in the source

human NPR1 on HEK293/hNPR1 cells (human), sequence (P16066 33-1061): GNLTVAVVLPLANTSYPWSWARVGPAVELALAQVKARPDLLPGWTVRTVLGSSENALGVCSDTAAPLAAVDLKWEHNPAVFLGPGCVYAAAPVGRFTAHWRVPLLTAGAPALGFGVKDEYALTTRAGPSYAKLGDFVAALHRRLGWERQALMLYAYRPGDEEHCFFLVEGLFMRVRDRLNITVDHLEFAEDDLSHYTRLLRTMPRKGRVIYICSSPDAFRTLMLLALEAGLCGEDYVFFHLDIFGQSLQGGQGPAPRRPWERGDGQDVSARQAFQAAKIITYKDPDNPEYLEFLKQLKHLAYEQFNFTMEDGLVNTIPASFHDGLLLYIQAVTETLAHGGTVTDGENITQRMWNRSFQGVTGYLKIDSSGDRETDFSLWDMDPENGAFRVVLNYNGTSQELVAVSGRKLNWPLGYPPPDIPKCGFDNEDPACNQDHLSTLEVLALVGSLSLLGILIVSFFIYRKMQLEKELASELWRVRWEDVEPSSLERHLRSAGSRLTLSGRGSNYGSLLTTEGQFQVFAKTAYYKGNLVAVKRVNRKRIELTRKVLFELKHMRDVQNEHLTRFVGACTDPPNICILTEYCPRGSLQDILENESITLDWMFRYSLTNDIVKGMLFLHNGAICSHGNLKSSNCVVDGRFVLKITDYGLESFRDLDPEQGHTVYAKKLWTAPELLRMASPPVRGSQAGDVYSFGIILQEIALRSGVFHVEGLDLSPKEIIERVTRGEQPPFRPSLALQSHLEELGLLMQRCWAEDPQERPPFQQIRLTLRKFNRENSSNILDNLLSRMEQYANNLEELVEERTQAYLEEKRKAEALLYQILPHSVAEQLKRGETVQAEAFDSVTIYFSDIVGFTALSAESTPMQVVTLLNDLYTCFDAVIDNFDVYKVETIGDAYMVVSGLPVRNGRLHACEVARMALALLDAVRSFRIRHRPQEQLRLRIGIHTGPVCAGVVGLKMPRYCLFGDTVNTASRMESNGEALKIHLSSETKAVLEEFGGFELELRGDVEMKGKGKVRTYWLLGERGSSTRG

EC50 (read off the curve); cGMP accumulation, HEK293/hNPR1 cells, ANP after pre-treatment with 50 nM H4H22034N [1]: 0.6 nM
EC50 (read off the curve); cGMP accumulation, HEK293/hNPR1 cells, ANP after pre-treatment with 150 nM H4H22034N [1]: 0.6 nM
EC50 (read off the curve); cGMP accumulation, HEK293/hNPR1 cells, ANP after pre-treatment with 450 nM H4H22034N [1]: 0.6 nM
EC50 (read off the curve); cGMP accumulation, HEK293/hNPR1 cells, ANP after pre-treatment with 50 nM REGN7541 [2]: 0.2 nM
EC50 (read off the curve); cGMP accumulation, HEK293/hNPR1 cells, ANP after pre-treatment with 150 nM REGN7541 [2]: 0.8 nM
EC50 (read off the curve); cGMP accumulation, HEK293/hNPR1 cells, ANP alone (dilution buffer) [2]: 0.07 nM
EC50 (read off the curve); cGMP accumulation, HEK293/hNPR1 cells, ANP after pre-treatment with 50 nM REGN7544 [3]: 0.3 nM
EC50 (read off the curve); cGMP accumulation, HEK293/hNPR1 cells, ANP after pre-treatment with 150 nM REGN7544 [3]: 0.8 nM
EC50 (read off the curve); cGMP accumulation, HEK293/hNPR1 cells, ANP after pre-treatment with 450 nM REGN7544 [3]: 40 nM
EC50 (read off the curve); cGMP accumulation, HEK293/hNPR1 cells, ANP alone (dilution buffer) [3]: 0.1 nM
EC50 (read off the curve); cGMP accumulation, HEK293/hNPR1 cells, ANP after pre-treatment with 50 nM REGN7548 [4]: 0.7 nM
EC50 (read off the curve); cGMP accumulation, HEK293/hNPR1 cells, ANP alone (dilution buffer) [4]: 0.09 nM
Binder: SLRRSSCFGGRMDRIGAQSGLGCNSFRY (ligand, UniProt P01160 124-151, looked up) [atrial natriuretic peptide (ANP)]
